Assay results as given in paper PMC3229571, “ZipA Binds to FtsZ with High Affinity and Enhances the Stability of FtsZ Protofilaments” (PLoS ONE, 2011).

Target: the molecule itself
Assay: co-sedimentation; FtsZ 6 µM, 50 mM PIPES pH 6.0, 6.8 or 8.0, 1 mM MgCl2, 1 mM GTP, 10 min at 37°C; polymers sedimented at 88,760 x g, 30°C, 30 min; SDS-PAGE of pellets

B1: FtsZ (natural protein, E. coli, UniProt P0A9A6 1-383, looked up)
chain: MFEPMELTNDAVIKVIGVGGGGGNAVEHMVRERIEGVEFFAVNTDAQALRKTAVGQTIQIGSGITKGLGAGANPEVGRNAADEDRDALRAALEGADMVFIAAGMGGGTGTGAAPVVAEVAKDLGILTVAVVTKPFNFEGKKRMAFAEQGITELSKHVDSLITIPNDKLLKVLGRGISLLDAFGAANDVLKGAVQGIAELITRPGLMNVDFADVRTVMSEMGYAMMGSGVASGEDRAEEAAEMAISSPLLEDIDLSGARGVLVNITAGFDLRLDEFETVGNTIRAFASDNATVVIGTSLDPDMNDELRVTVVATGIGMDKRPEITLVTNKQVQQPVMDRYQQHGMAPLTQEQKPVAKVVNDNAPQTAKEPDYLDIPAFLRKQAD
notes: Cell division protein FtsZ, E. coli; no tag is named; also called recombinant E. coli FtsZ; source: E. coli BL21, purified (ammonium sulfate precipitation, desalting, polymerization and depolymerization step)
  binding result: binds
